Measured values taken from patent publication US6555328.

T1: Flag-tagged hPER1 (human Period 1, full-length open reading frame, amino acids 1 to 1289), O15534
T1 chain: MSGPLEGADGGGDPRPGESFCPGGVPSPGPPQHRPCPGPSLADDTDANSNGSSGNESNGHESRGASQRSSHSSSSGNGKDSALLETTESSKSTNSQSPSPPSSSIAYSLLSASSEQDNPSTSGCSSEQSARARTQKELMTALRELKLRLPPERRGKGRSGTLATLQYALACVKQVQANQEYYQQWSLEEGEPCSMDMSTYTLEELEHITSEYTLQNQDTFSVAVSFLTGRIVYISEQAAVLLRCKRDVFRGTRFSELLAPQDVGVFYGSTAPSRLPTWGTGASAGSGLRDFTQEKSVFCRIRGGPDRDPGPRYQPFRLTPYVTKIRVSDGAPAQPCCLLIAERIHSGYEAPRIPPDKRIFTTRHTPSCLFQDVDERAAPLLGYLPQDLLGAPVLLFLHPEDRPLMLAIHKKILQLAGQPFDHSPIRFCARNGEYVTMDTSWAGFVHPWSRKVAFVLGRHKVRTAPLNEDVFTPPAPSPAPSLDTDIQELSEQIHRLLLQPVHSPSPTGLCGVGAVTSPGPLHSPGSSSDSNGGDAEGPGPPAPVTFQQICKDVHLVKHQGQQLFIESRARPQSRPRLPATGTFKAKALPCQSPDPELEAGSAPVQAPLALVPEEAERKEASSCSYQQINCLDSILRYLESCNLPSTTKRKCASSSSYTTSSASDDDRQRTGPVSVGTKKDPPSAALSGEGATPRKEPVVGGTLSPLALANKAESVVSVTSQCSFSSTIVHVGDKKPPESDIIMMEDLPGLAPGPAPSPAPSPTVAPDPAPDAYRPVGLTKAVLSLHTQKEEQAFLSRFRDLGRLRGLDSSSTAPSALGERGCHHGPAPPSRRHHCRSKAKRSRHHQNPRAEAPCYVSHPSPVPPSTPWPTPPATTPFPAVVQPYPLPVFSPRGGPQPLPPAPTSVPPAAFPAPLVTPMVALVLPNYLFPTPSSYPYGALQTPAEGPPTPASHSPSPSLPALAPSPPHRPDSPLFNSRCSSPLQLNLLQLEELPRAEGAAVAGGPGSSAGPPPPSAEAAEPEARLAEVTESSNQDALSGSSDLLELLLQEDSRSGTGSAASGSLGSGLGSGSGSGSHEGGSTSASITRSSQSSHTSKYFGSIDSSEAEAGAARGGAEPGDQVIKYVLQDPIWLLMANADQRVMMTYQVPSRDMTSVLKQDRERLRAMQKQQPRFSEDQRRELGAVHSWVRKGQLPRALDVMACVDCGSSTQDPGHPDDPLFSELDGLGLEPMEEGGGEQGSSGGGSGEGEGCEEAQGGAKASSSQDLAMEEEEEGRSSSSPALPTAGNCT

T2: hPER2-C-terminal YGFP protein (human Period 2, full-length ORF), O15055
T2 sequence (O15055 whole entry, looked up): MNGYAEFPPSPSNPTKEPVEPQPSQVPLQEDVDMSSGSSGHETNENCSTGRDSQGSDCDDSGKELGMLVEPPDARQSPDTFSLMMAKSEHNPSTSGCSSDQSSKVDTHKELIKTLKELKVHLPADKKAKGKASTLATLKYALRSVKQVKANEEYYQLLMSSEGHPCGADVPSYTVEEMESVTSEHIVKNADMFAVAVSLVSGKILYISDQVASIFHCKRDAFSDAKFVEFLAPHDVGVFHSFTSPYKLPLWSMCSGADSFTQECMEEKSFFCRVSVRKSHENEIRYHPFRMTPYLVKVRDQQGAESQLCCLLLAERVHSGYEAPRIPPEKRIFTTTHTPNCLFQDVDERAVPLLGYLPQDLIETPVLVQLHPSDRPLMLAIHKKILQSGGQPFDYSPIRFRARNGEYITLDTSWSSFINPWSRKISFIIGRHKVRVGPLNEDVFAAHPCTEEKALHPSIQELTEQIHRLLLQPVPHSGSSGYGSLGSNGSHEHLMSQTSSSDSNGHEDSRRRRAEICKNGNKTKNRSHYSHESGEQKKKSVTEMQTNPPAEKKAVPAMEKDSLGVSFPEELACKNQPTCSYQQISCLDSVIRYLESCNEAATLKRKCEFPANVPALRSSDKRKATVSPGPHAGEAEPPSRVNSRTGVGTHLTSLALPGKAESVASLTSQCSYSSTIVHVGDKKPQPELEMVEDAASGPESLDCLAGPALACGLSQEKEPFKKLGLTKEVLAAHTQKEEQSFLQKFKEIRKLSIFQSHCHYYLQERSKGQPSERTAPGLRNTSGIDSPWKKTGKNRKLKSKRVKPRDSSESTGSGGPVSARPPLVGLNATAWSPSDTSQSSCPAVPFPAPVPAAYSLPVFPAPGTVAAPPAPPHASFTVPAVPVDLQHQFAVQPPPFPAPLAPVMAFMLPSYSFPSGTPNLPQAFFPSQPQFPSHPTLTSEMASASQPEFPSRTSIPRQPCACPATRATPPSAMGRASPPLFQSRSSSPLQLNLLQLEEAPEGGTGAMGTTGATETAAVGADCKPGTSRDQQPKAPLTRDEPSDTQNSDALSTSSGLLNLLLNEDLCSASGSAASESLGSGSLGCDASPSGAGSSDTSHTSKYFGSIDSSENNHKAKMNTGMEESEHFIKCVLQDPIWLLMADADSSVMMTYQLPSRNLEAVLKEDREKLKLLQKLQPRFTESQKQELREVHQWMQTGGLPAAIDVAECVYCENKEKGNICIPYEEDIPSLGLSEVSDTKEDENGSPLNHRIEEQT


Legend:
[1] = target: T1, Flag-tagged hPER1 (human Period 1, …)
[2] = target: T2, hPER2-C-terminal YGFP protein (human …)

GST-IkBα, sequence (P25963 whole entry): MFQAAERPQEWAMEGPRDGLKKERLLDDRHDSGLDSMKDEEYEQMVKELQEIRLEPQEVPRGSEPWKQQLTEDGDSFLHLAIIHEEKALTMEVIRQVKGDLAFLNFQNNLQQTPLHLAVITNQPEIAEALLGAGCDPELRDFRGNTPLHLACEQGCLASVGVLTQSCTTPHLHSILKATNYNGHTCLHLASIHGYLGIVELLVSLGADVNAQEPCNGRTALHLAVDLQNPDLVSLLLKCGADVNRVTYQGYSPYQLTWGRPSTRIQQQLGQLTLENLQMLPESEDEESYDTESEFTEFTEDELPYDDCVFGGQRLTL

Protein | in vitro kinase assay, 32P autoradiography [1] | in vitro kinase assay, 32P autoradiography (GST-IkBα) | in vitro kinase assay, 32P autoradiography (casein) | P32 incorporation into hPER2 in cpm [2] | Shift in hPER2 migration [2] | P32 incorporation [1]
recombinant his-tagged wild-type hCKIε, expressed in E. coli and purified (protein) MELRVGNKYRLGRKIGSGSFGDIYLGANIASGEEVAIKLECVKTKHPQLHIESKFYKMMQGGVGIPSIKWCGAEGDYNVMVMELLGPSLEDLFNFCSRKFSLKTVLLLADQMISRIEYIHSKNFIHRDVKPDNFLMGLGKKGNLVYIIDFGLAKKYRDARTHQHIPYRENKNLTGTARYASINTHLGIEQSRRDDLESLGYVLMYFNLGSLPWQGLKAATKRQKYERISEKKMSTPIEVLCKGYPSEFSTYLNFCRSLRFDDKPDYSYLRQLFRNLFHRQGFSYDYVFDWNMLKFGAARNPEDVDRERREHEREERMGQLRGSATRALPPGPPTGATANRLRSAAEPVASTPASRIQPAGNTSPRAISRVDRERKVSMRLHRGAPANVSSSDLTGRQEVSRIPASQTSVPFDHLGK | The presence of hCKIε results in phosphorylation of hPER1 | Recombinant hCKIε phosphorylates both casein and IkBα substrates | Recombinant hCKIε phosphorylates both casein and IkBα substrates |  |  | 
recombinant histidine-tagged hCKIε-K38R, expressed in bacteria and purified (protein) MELRVGNKYRLGRKIGSGSFGDIYLGANIASGEEVAIRLECVKTKHPQLHIESKFYKMMQGGVGIPSIKWCGAEGDYNVMVMELLGPSLEDLFNFCSRKFSLKTVLLLADQMISRIEYIHSKNFIHRDVKPDNFLMGLGKKGNLVYIIDFGLAKKYRDARTHQHIPYRENKNLTGTARYASINTHLGIEQSRRDDLESLGYVLMYFNLGSLPWQGLKAATKRQKYERISEKKMSTPIEVLCKGYPSEFSTYLNFCRSLRFDDKPDYSYLRQLFRNLFHRQGFSYDYVFDWNMLKFGAARNPEDVDRERREHEREERMGQLRGSATRALPPGPPTGATANRLRSAAEPVASTPASRIQPAGNTSPRAISRVDRERKVSMRLHRGAPANVSSSDLTGRQEVSRIPASQTSVPFDHLGK | hCKIε-K38R has no kinase activity towards hPER1 | does not phosphorylate either casein or GST-IkBα substrates | does not phosphorylate either casein or GST-IkBα substrates |  |  | 
hCKIε-K38R, kinase-negative mutant of hCKIε, expressed in 293T cells (protein) MELRVGNKYRLGRKIGSGSFGDIYLGANIASGEEVAIRLECVKTKHPQLHIESKFYKMMQGGVGIPSIKWCGAEGDYNVMVMELLGPSLEDLFNFCSRKFSLKTVLLLADQMISRIEYIHSKNFIHRDVKPDNFLMGLGKKGNLVYIIDFGLAKKYRDARTHQHIPYRENKNLTGTARYASINTHLGIEQSRRDDLESLGYVLMYFNLGSLPWQGLKAATKRQKYERISEKKMSTPIEVLCKGYPSEFSTYLNFCRSLRFDDKPDYSYLRQLFRNLFHRQGFSYDYVFDWNMLKFGAARNPEDVDRERREHEREERMGQLRGSATRALPPGPPTGATANRLRSAAEPVASTPASRIQPAGNTSPRAISRVDRERKVSMRLHRGAPANVSSSDLTGRQEVSRIPASQTSVPFDHLGK |  |  |  | 3000 cpm | - | 
HA-tagged hCKIε (human casein kinase I ε, wild type, expressed from pCEP4-CKIε in 293T cells) (protein) YPDYDVPDYAMELRVGNKYRLGRKIGSGSFGDIYLGANIASGEEVAIKLECVKTKHPQLHIESKFYKMMQGGVGIPSIKWCGAEGDYNVMVMELLGPSLEDLFNFCSRKFSLKTVLLLADQMISRIEYIHSKNFIHRDVKPDNFLMGLGKKGNLVYIIDFGLAKKYRDARTHQHIPYRENKNLTGTARYASINTHLGIEQSRRDDLESLGYVLMYFNLGSLPWQGLKAATKRQKYERISEKKMSTPIEVLCKGYPSEFSTYLNFCRSLRFDDKPDYSYLRQLFRNLFHRQGFSYDYVFDWNMLKFGAARNPEDVDRERREHEREERMGQLRGSATRALPPGPPTGATANRLRSAAEPVASTPASRIQPAGNTSPRAISRVDRERKVSMRLHRGAPANVSSSDLTGRQEVSRIPASQTSVPFDHLGK |  |  |  | 5000 cpm | + | co-transfection of hPER2 or hPER1 with CKIe resulted in the incorporation of p32 into both PER proteins
